Laboratory results as given in patent US20210239714A1, “TEST METHOD FOR OLFACTORY MUCOSA OR OLFACTORY MUCUS IN MAMMALS” (Ajinomoto Co., Inc., priority 2018, published 2021).

Tested on: olfactory receptor (OR X)
Experiment: Luciferase reporter assay using olfactory receptor-expressing HEK293T cells, effect of concurrent addition of LCN15
Type: cell-based, human
Conditions: mixed solution of isovaleric acid (30 μM) and LCN15 (1 μM) compared to isovaleric acid (30 μM) alone; 3 hours, 37° C.
Text: A human olfactory receptor gene was cloned by a PCR method using a human olfactory receptor gene purchased from TrueClone cDNA Clone Collection (OriGene) as a template base on sequence information registered in GenBank. Each gene amplified by the PCR method was subcloned into downstream of a Rho tag sequence of a Rho-pME18S vector (K. Kajiya et al., Journal of Neuroscience, 15 Aug. 2001, 21 (16) 6018-6025, which is incorporated herein by reference in its entirety) using EcoRI and XhoI sites to obtain an expression vector for the human olfactory receptor.
HEK293T cells that expressed the olfactory receptor (OR X) was prepared by the following procedure. […]
The olfactory receptor (OR X) expressed on HEK293T cells is conjugated with Golf to activate adenylate cyclase, thereby increases an amount of intracellular cAMP. In this Example, the measurement for response of the olfactory receptor to a test substance employed luciferase reporter gene assay in which increase of the amount of intracellular cAMP was monitored as increase of a luminescence value derived from firefly luciferase. […] In conjugation with this, a luminescence value derived from Renilla luciferase was used as an internal standard for correcting errors of a gene transfer efficiency and a cell number in each well. […]

B1: lipocalin 15 (protein, listed as Homo sapiens)
chain: MEVLLQPDFNAEKFSGLWYVVSMASDCRVFLGKKDHLSMSTRAIRPTEEGGLHVHMEFPGADGCNQVDAEYLKVGSEGHFRVPALGYLDVRIVDTDYSSFAVLYIYKELEGALSTMVQLYSRTQDVSPQALKSFQDFYPTLGLPKDMMVMLPQSDACNPESKEAP
notes: secreted protein produced in the olfactory mucosa and secreted into the olfactory mucus; recombinant hLCN15 prepared in E. coli
response intensity of the olfactory receptor (Luc/hRLuc value): more enhanced
